Measurements: US20240035059A1 (NATIONAL UNIVERSITY OF SINGAPORE, published 2024)

B1: NT7 protein fragment (N-terminal T7 RNA polymerase fragment without Tlpa coiled-coil) (other)
chain: MNTINIAKNDFSDIELAAIPFNTLADHYGERLAREQLALEHESYEMGEARFRKMFERQLKAGEVADNAAAKPLITTLLPKMIARINDWFEEVKAKRGKRPTAFQFLQEIKPEAVAYITIKTTLACLTSADNTTVQAVASAIGRAIEDEARFGRIRDLEAKHFKKNVEEQLNKRVGHVYKKAFMQVVEADMLSKGLLGGEAWSSWHKEDSIHVGVRCIEMLIESTGMVSLHRQNAGVVGQDSETIELAPEYAEAIATRAGALAGISPMFQPCVVPPKPWTGITGGGYWANGRRPLALVRTHSKKALMRYEDVYMPEVYKAINIAQNTAWKINKKVLAVANVITKWKHCPVEDIPAIEREELPMKPEDIDMNPEALTAWKRAAAAVYRKDKARKSRRISLEFMLEQANKFANHKAIWFPYNMDWRGRVYAVSMFNPQGNDMTKGLLTLAKGKPIGKEGYYWLKIHGANCAGVDKVPFPERIKFIEENHENIMACAKSPLENTWWAEQDSPFCFLAFCFEYAGVQHHGLSYNCSLPLAFDGSCSGIQHFSAMLRDEVGGRAVNLLP

Experiments:
[1] = target: CT7-Tlpa coil fusion protein (Tlpa coiled-coil domain - GGSGG linker - C-terminal T7 RNA polymerase fragment) (T7 phage); assay: cell-based or functional assay
[2] = target: CT7 protein fragment (C-terminal T7 RNA polymerase fragment without Tlpa coiled-coil) (T7 phage, UniProt P00573 564-883); assay: cell-based or functional assay

Row | Molecule | fold-difference of pT7-GFP reporter between 30° C. and 42° C., Thermal-T7RNAP(v3) [1] [fold] | half-activation temperature Km of pT7-GFP reporter, Thermal-T7RNAP(v1) [1] [° C.] | half-activation temperature Km of pT7-GFP reporter, Thermal-T7RNAP(v2) [1] [° C.] | half-activation temperature Km of pT7-GFP reporter, Thermal-T7RNAP(v3) [1] [° C.] | maximum repression capacity Kinh of pT7-GFP reporter, Thermal-T7RNAP(v1) [1] | maximum repression capacity Kinh of pT7-GFP reporter, Thermal-T7RNAP(v2) [1] | maximum repression capacity Kinh of pT7-GFP reporter, Thermal-T7RNAP(v3) [1] | fold-difference of pT7-GFP reporter between 30° C. and 42° C., Split-T7 system (no Tlpa coil) [2] [fold]
1 | NT7-Tlpa coil fusion protein (N-terminal T7 RNA polymerase fragment - GGSGG linker - Tlpa coiled-coil domain) | 24 | 37.5 | 38.4 | 36.3 | 0.957 | 0.427 | 0.971 | –
2 | B1 | – | – | – | – | – | – | – | 4
